The results in this text go back to publication PMC12607895.

The target in assay [1] is CD46 (human) (UniProt P15529). Nature of the assay: SPR; Biacore T200; CD46 or CAR amine-coupled to a CM5 chip (2,390-2,640 RU CD46, 2,380-2,870 RU CAR); whole virions as analyte, twofold series 50-12.5 µg/mL, 120 s at 30 µL/min; 25°C, HBS-EP+ (10 mM HEPES, 150 mM NaCl, 3 mM EDTA, 0.005% P20, pH 7.4); performed once.
In assay [2] the target is coxsackievirus and adenovirus receptor (CAR) (UniProt P78310). The assay is described as above.
Sequence of coxsackievirus and adenovirus receptor (CAR) (P78310 20-365): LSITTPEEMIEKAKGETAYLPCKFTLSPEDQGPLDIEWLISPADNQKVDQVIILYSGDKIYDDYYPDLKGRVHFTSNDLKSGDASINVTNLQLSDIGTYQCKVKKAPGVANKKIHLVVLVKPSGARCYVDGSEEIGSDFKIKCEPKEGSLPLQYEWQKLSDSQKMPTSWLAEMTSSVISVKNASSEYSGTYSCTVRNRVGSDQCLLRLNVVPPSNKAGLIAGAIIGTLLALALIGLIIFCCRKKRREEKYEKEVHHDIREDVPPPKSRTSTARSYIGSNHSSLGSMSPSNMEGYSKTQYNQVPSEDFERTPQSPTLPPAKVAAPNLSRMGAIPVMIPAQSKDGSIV

Sequence of CD46 (human) (P15529 35-392): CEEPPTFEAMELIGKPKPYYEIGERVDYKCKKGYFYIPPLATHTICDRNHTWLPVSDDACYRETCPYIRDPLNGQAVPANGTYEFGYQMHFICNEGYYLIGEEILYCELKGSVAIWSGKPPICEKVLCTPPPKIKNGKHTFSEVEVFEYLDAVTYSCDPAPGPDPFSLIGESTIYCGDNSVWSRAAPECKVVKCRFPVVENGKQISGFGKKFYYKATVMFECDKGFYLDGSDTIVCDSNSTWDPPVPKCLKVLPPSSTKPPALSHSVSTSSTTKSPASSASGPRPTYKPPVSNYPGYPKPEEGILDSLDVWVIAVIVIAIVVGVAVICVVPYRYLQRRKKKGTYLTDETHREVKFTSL

For HAdV-B11 virion (complex), in assay [1], the dissociation constant (Kd) was found to be 4.8 pM. In turn, HAdV-D26 virion (complex) displayed a Kd in assay [2] of 76 pM. This lies in the picomolar range.

Substance HAdV-D37 virion (complex) returned an equilibrium dissociation constant (Kd) in assay [1] of 100 pM. The same measure, in the same setting: with HAdV-D39 virion (complex) the figure was 100 pM.
